According to article PMC10658506:

Target: human gp130-Fc (UniProt P40189)
Test: flow cytometry on yeast-displayed IL-11
Conditions: 100 nM IL-11R added, read off a plot
[1] = 100 nM gp130-Fc, parent: est. 35000
[2] = 1000 nM gp130-Fc, parent: est. 40000

Chain of human gp130-Fc (P40189 whole entry, looked up, tested part not stated): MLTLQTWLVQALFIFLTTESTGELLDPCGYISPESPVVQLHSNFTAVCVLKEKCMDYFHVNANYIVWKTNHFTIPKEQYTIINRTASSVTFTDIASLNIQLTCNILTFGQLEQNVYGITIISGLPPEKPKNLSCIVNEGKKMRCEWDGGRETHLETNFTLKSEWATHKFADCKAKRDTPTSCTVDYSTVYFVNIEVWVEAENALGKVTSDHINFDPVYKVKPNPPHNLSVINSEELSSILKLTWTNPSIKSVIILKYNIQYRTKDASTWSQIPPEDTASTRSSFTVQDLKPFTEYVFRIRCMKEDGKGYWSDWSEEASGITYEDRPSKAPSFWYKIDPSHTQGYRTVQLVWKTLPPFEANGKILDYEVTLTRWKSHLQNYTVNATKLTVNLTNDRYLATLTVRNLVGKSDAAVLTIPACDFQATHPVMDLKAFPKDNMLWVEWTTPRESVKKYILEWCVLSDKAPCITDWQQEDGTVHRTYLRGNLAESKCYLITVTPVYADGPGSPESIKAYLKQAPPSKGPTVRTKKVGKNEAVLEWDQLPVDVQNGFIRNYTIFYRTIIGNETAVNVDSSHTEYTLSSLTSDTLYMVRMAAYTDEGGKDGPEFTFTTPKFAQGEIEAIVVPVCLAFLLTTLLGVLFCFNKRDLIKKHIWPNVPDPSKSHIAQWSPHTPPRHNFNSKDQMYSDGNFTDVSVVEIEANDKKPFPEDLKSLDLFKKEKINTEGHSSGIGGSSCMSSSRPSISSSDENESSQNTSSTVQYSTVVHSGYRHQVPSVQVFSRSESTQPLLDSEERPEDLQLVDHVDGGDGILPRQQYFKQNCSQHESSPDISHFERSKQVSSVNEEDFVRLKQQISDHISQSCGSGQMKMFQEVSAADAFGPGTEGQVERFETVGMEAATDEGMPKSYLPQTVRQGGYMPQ

| response (Normalized Fluorescence) [1] | response (Normalized Fluorescence) [2] | response (Normalized Fluorescence) (10 nM gp130-Fc, parent: est. 28000) | Substance |
| --- | --- | --- | --- |
| 1900 | 4500 |  | yeast-displayed IL-11 GIPR precomplexed with soluble human IL-11R (from UniProt Q14626) L24R; W147A |
| 17000 | 26000 | 4900 | yeast-displayed IL-11 GIPR precomplexed with soluble human IL-11R (from UniProt Q14626) W147A |
